Test results as given in paper PMC10637977, “The preferential transport of NO3^− by full-length Guillardia theta anion channelrhodopsin 1 is enhanced by its extended cytoplasmic domain” (The Journal of Biological Chemistry, 2023).

B1: full-length Guillardia theta anion channelrhodopsin 1 (GtACR1_full) (natural protein, UniProt L1J207 1-438, looked up)
chain: MSSITCDPAIYGEWSRENQFCVEKSLITLDGIKYVQLVMAVVSACQVFFMVTRAPKVPWEAIYLPTTEMITYSLAFTGNGYIRVANGKYLPWARMASWLCTCPIMLGLVSNMALVKYKSIPLNPMMIAASSICTVFGITASVVLDPLHVWLYCFISSIFFIFEMVVAFAIFAITIHDFQTIGSPMSLKVVERLKLMRIVFYVSWMAYPILWSFSSTGACIMSENTSSVLYLLGDALCKNTYGILLWATTWGLLNGKWDRDYVKGRNVDGTLMPEYEQDLEKGNTERYEDARAGETFEVKMFGRTLTSVRRSRRRPRRDIVFNGGDRNRLSDSDSERRRRRKKYQRKDSESENSSDESMGSEHEKNRRKGKKKNKENRRSAPPKEDSTSDTLRDAEIKRIMDLMKRNAGSDIPGLDGDGRLRDDGGLIPTRNEEHDDSA
modifications: all-trans-retinal bound to Lys238 via a protonated Schiff base linkage
notes: Guillardia theta anion channelrhodopsin 1 (GtACR1), full length, 438 amino acids (rhodopsin domain plus cytoplasmic domain, CPD); Calculated molecular mass 51.0 kDa; Details of construction and expression are in the Supporting information; also called full-length GtACR1; source: P. pastoris SMD1168H, recombinant expression (pPICZ B vector, codon-optimised gene); not shown: His8, C-terminal, kept
B2: GtACR1 without the CPD (GtACR1_ΔCPD), C-terminal eight-histidine tag (domain or fragment, Guillardia theta, UniProt L1J207 1-295, looked up)
chain: MSSITCDPAIYGEWSRENQFCVEKSLITLDGIKYVQLVMAVVSACQVFFMVTRAPKVPWEAIYLPTTEMITYSLAFTGNGYIRVANGKYLPWARMASWLCTCPIMLGLVSNMALVKYKSIPLNPMMIAASSICTVFGITASVVLDPLHVWLYCFISSIFFIFEMVVAFAIFAITIHDFQTIGSPMSLKVVERLKLMRIVFYVSWMAYPILWSFSSTGACIMSENTSSVLYLLGDALCKNTYGILLWATTWGLLNGKWDRDYVKGRNVDGTLMPEYEQDLEKGNTERYEDARAGET
modifications: all-trans-retinal bound to Lys238 via a protonated Schiff base linkage
notes: Guillardia theta anion channelrhodopsin 1 (GtACR1) with the C-terminal cytoplasmic domain (CPD, 143 amino acids) deleted; composed of 295 amino acids; Calculated molecular mass 34.4 kDa; also called CPD-deleted GtACR1; GtACR1 rhodopsin domain; source: P. pastoris SMD1168H, recombinant expression (pPICZ B vector, codon-optimised gene); not shown: His8, C-terminal, kept

Target: the molecule itself
Assay: SDS-PAGE and Western blot; P. pastoris cells expressing the protein compared with a negative control; immunoblotting with an anti-His tag antibody; bands assigned to monomer and dimer by molecular mass

| Protein | stoichiometry N |
| --- | --- |
| B1 | 2 |
| B2 | 2 |
